Laboratory results from PMC4893650 (Theranostics, 2016).

Molecular target: purified HER2 protein (human epidermal growth factor receptor-2) (human, UniProt P04626 23-652)
Test: SPR

In the case of CDTFPYLGWWNPNEYRY [peptide P51], the Kd is reported as 18.6 nM.
